How the values were obtained:
Experiment in all cases: interaction in ABC DLBCL cells expressing the RNF31 isoform; method not detailed
[1] = target: T1, RNF31 Q622L mutant expressed in ABC DLBCL cells (UniProt Q96EP0 1-1072)
T1 construct: Expressed in ABC DLBCL cells; also called RNF31 mutant
T1 sequence (looked up): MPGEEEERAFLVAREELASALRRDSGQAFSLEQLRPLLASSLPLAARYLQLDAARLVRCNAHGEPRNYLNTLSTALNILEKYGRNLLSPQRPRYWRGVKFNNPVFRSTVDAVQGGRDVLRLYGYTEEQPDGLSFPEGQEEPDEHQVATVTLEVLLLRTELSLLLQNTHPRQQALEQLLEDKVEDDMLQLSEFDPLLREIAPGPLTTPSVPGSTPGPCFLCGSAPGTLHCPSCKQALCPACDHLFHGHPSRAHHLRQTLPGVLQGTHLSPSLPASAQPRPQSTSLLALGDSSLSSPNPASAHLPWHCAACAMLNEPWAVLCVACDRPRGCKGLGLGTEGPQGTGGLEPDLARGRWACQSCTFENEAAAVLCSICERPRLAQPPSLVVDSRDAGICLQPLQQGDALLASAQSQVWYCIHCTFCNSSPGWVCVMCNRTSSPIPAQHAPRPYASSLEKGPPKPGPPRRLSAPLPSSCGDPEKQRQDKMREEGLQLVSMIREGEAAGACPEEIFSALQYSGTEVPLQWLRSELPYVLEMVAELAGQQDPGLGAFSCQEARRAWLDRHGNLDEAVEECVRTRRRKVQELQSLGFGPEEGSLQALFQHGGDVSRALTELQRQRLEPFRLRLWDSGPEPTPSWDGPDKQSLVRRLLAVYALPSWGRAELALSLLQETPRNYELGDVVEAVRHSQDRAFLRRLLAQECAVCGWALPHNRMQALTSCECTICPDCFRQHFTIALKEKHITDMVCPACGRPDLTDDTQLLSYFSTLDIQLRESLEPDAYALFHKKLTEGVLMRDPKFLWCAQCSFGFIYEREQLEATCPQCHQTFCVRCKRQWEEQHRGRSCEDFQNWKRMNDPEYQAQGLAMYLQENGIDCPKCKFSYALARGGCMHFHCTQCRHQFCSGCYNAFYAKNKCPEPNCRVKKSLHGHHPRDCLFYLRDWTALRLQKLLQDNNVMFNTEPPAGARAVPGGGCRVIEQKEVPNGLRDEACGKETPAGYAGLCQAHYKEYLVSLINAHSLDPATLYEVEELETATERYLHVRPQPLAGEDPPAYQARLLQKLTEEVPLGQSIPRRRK

[2] = target: T2, wild type RNF31 expressed in ABC DLBCL cells (UniProt Q96EP0 1-1072)
T2 sequence (looked up): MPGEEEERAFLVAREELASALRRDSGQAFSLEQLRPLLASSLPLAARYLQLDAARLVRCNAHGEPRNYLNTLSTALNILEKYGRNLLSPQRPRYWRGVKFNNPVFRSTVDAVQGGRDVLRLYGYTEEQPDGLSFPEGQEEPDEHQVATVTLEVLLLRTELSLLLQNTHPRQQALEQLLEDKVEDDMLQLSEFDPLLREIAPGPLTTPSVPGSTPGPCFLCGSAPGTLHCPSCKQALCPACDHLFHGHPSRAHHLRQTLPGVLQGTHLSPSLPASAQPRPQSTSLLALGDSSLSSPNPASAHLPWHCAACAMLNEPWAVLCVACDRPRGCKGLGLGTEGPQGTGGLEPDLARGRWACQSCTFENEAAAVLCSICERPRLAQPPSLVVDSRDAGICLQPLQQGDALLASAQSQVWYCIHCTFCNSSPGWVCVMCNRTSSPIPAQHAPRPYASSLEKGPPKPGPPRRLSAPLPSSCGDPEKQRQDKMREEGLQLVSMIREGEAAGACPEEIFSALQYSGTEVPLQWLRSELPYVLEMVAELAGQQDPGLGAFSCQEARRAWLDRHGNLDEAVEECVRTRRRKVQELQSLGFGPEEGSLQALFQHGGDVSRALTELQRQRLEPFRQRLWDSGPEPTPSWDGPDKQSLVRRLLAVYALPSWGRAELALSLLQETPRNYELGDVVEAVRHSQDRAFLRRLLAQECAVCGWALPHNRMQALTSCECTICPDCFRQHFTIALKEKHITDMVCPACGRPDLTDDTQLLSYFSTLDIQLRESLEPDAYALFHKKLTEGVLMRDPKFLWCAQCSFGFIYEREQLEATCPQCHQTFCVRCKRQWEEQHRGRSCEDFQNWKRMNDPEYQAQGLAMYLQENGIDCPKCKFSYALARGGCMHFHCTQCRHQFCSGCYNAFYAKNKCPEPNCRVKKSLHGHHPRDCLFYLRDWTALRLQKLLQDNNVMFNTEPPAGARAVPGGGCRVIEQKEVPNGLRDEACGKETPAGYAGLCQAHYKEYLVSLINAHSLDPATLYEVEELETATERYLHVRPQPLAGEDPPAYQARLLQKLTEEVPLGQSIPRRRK

[3] = target: T3, RNF31 Q584H mutant expressed in ABC DLBCL cells (UniProt Q96EP0 1-1072)
T3 construct: Expressed in ABC DLBCL cells; also called RNF31 mutant
T3 sequence (looked up): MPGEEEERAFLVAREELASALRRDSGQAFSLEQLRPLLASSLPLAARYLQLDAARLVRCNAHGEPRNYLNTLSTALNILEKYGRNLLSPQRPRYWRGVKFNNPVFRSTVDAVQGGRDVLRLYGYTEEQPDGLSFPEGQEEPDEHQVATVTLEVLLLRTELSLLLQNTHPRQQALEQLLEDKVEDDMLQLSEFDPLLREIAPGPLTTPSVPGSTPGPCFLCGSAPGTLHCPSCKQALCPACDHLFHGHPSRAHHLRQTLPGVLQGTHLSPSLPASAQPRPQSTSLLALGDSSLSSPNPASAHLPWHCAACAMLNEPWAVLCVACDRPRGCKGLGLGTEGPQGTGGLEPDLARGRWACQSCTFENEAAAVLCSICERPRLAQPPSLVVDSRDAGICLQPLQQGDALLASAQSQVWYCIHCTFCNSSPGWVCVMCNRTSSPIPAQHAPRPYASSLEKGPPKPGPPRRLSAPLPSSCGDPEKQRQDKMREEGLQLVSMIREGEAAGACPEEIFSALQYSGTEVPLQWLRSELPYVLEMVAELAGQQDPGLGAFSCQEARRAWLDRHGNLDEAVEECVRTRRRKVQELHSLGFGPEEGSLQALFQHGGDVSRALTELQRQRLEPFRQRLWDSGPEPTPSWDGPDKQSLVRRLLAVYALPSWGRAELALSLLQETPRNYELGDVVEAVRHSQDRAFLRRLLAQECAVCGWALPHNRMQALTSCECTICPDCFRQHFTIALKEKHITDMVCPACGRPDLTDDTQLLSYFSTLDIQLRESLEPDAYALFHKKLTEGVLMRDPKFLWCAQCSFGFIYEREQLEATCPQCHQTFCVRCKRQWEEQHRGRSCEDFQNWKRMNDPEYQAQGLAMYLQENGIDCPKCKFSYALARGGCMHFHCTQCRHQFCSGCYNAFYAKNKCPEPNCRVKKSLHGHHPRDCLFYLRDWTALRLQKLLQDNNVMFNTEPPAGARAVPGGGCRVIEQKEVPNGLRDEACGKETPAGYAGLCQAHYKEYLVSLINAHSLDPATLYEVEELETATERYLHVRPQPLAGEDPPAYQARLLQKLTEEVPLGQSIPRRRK

Measured: binding result

B1: MALT1 (enzyme, UniProt Q9UDY8 2-824, looked up)
chain: SLLGDPLQALPPSAAPTGPLLAPPAGATLNRLREPLLRRLSELLDQAPEGRGWRRLAELAGSRGRLRLSCLDLEQCSLKVLEPEGSPSLCLLKLMGEKGCTVTELSDFLQAMEHTEVLQLLSPPGIKITVNPESKAVLAGQFVKLCCRATGHPFVQYQWFKMNKEIPNGNTSELIFNAVHVKDAGFYVCRVNNNFTFEFSQWSQLDVCDIPESFQRSVDGVSESKLQICVEPTSQKLMPGSTLVLQCVAVGSPIPHYQWFKNELPLTHETKKLYMVPYVDLEHQGTYWCHVYNDRDSQDSKKVEIIIGRTDEAVECTEDELNNLGHPDNKEQTTDQPLAKDKVALLIGNMNYREHPKLKAPLVDVYELTNLLRQLDFKVVSLLDLTEYEMRNAVDEFLLLLDKGVYGLLYYAGHGYENFGNSFMVPVDAPNPYRSENCLCVQNILKLMQEKETGLNVFLLDMCRKRNDYDDTIPILDALKVTANIVFGYATCQGAEAFEIQHSGLANGIFMKFLKDRLLEDKKITVLLDEVAEDMGKCHLTKGKQALEIRSSLSEKRALTDPIQGTEYSAESLVRNLQWAKAHELPESMCLKFDCGVQIQLGFAAEFSNVMIIYTSIVYKPPEIIMCDAYVTDFPLDLDIDPKDANKGTPEETGSYLVSKDLPKHCLYTRLSSLQKLKEHLVFTVCLSYQYSGLEDTVEDKQEVNVGKPLIAKLDMHRGLGRKTCFQTCLMSNGPYQSSAATSGGAGHYHSLQDPFHGVYHSHPGNPSNVTPADSCHCSRTPDAFISSFAHHASCHFSRSNVPVETTDEIPFSFSDRLRISEK
notes: Endogenous protein in cell lysates
binds: all assays above

— patent publication US20160031957A1 (UNITED STATES OF AMERICA AS REPRESENTED BY THE SECRETARY …, published 2016)
